Changes are numbered by the printed parent chain. Each block holds one binder with its values, some of them ahead of it.
What was measured:
Test in all cases: scFv ELISA
BSA = BSA (UniProt P02769)
[1] = biological target: Peptide 5: Biotin-…-[Tyr(PC)]-acid
[2] = biological target: Peptide 1: Biotin-…-[Tyr(PC)]-acid
[3] = biological target: T1, Peptide 8: Biotin-AEAAAKEAAAKEAAAKEAAAKAAA-Tyr-acid (N-terminal biotin; C-terminal acid; no PC)
T1 construct: control peptide without PC
T1 peptide: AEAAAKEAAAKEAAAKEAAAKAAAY
Procedure, shortened: (§1)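 Bound scFv was read as OD450 after HRP–anti-V5 detection, TMB development and HCl stop. PPE with BSA was incubated 1 h at RT on BSA-blocked wells coated overnight at 4° C. with peptide, or on streptavidin wells loaded 1 h with biotinylated PC-peptides at 1 μg/mL.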

[4] = biological target: T2, Peptide 4: Biotin-AGGGGSGGGGSGGGGSAAA-Tyr-acid (N-terminal biotin; C-terminal acid; no PC)
T2 construct: control peptide without PC
T2 peptide: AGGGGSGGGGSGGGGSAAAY
Procedure, shortened: as §1

Chain of BSA (P02769 25-607 limits assumed): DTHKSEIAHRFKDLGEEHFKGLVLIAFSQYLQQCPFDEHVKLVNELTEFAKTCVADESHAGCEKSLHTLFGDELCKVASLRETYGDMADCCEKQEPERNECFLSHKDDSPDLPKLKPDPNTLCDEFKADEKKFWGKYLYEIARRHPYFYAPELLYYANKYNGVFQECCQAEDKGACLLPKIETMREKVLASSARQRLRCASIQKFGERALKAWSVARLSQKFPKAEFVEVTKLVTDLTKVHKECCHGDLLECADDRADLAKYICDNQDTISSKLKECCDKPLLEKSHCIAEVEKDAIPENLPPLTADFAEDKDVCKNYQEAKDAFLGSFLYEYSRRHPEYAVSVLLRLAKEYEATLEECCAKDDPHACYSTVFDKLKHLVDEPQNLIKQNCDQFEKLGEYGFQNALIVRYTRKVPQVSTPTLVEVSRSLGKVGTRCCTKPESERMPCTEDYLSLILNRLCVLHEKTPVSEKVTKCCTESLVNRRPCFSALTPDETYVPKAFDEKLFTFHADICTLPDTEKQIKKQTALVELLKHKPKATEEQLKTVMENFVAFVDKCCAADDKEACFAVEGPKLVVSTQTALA

- OD450 (BSA): 0.1 OD450
- OD450 [1]: 1.27 OD450
- OD450 [2]: 0.58 OD450
- OD450 [3]: 0.06 OD450
- OD450 [4]: 0.07 OD450
B1: PcOxP_DB04_F11 (scFv, V domains shown)
VH: EVQLLESGGGLVQPGGSLRLSCAASGFTGSDFYMEWVRQAPGKGLEWVAASRGKGNSYTTEYADSVKGRFTISRDNSKNTLYLQMNSLRAEDTAVYYCARDYYGSSTWYFDVWGQGTLVTVSS
VL: DIQMTQSPSSLSASVGDRVTITCTASESLYSSKHKVHYLAWYQQKPGKAPKLLIYGASNRYAGVPSRFSGSGSGTDFTLTISSLQPEDFATYYCGQFYSYPLTFGGGTKVEIK
notes: scFv in periplasmic extract

- OD450 (BSA): 0.12 OD450
- OD450 [1]: 1.32 OD450
- OD450 [2]: 0.27 OD450
- OD450 [3]: 0.07 OD450
- OD450 [4]: 0.07 OD450
B3: PcOxP_DB03_H03 (scFv, V domains shown)
VH: B1 VH with G53N, G55W, S57D, T107Y
VL: DIQMTQSPSSLSASVGDRVTITCTASESLSSSKHKHYLAWYQQKPGKAPKLLIYGASSRYSGVPSRFSGSGSGTDFTLTISSLQPEDFATYYCAQFYSYPLTFGGGTKVEIK
notes: scFv in periplasmic extract

- OD450 (BSA): 0.1 OD450
- OD450 [1]: 1.05 OD450
- OD450 [2]: 0.8 OD450
- OD450 [3]: 0.08 OD450
- OD450 [4]: 0.07 OD450
B4: PcOxP_DB04_H03 (scFv, V domains shown)
VH: B1 VH with T28P, G29F, G53N, G55A, S57D, T107Y
VL: DIQMTQSPSSLSASVGDRVTITCRASESLYSSLHKYLAWYQQKPGKAPKLLIYGASNLQIGVPSRFSGSGSGTDFTLTISSLQPEDFATYYCAQFYSYPLTFGGGTKVEIK
notes: scFv in periplasmic extract

- OD450 (BSA): 0.08 OD450
- OD450 [1]: 2.09 OD450
- OD450 [2]: 1.37 OD450
- OD450 [3]: 0.05 OD450
- OD450 [4]: 0.06 OD450
B6: PcOxP_DB01_D11 (scFv, V domains shown)
VH: B1 VH with G29F, D31S, F32Y, G53N, G55A, S57D, T107Y, F110N
VL: DIVMTQSPDSLAVSLGERATINCTASESLYSSKWKVHYLAWYQQKPGQPPKLLIYGASNRYIGVPDRFSGSGSGTDFTLTISSLQAEDVAVYYCAQFYSYPLTFGGGTKVEIK
notes: scFv in periplasmic extract

- OD450 (BSA): 0.11 OD450
- OD450 [1]: 1.12 OD450
- OD450 [2]: 1.03 OD450
- OD450 [3]: 0.07 OD450
- OD450 [4]: 0.07 OD450
B9: PcOxP_DB04_G06 (scFv, V domains shown)
VH: B1 VH with G29F, G53W, G55A, S57D, G104E, T107Y
VL: B1 VL with E27Q, A62I, G95A, S99V
notes: scFv in periplasmic extract

- OD450 (BSA): 0.05 OD450
- OD450 [1]: 1.1 OD450
- OD450 [2]: 0.53 OD450
- OD450 [3]: 0.04 OD450
- OD450 [4]: 0.04 OD450
B11: PcOxP_DB01_C07 (scFv, V domains shown)
VH: B1 VH with G29F, F32Y, G53N, G55A, S57D, T107Y
VL: B6 VL with W34H, I62D
notes: scFv in periplasmic extract

- OD450 (BSA): 0.07 OD450
- OD450 [1]: 0.87 OD450
- OD450 [2]: 0.45 OD450
- OD450 [3]: 0.06 OD450
- OD450 [4]: 0.08 OD450
B13: PcOxP_DB01_D04 (scFv, V domains shown)
VH: B1 VH with G29F, G53N, G55A, S57D, T107Y
VL: B6 VL with Y30W, W34H
notes: scFv in periplasmic extract

- OD450 (BSA): 0.07 OD450
- OD450 [1]: 1.02 OD450
- OD450 [2]: 0.46 OD450
- OD450 [3]: 0.05 OD450
- OD450 [4]: 0.05 OD450
B14: PcOxP_DB01_E02 (scFv, V domains shown)
VH: B1 VH with G29F, F32Y, G53N, S57D, T107Y
VL: B6 VL with W34H
notes: scFv in periplasmic extract

The next lines start with the binder.

B2: PcOxP_DB01_A03 (scFv, V domains shown)
VH: B1 VH with G29F, F32Y, G53N, G55A, S57D, T107Y
VL: B6 VL with W34H
notes: scFv in periplasmic extract
- OD450 (BSA): 0.07 OD450
- OD450 [1]: 1.38 OD450
- OD450 [2]: 0.86 OD450
- OD450 [3]: 0.04 OD450
- OD450 [4]: 0.05 OD450

B5: PcOxP_DB01_B12 (scFv, V domains shown)
VH: B1 VH with G29F, D31S, F32Y, G53N, T107Y
VL: B6 VL with W34H, A95G
notes: scFv in periplasmic extract
- OD450 (BSA): 0.09 OD450
- OD450 [1]: 1.19 OD450
- OD450 [2]: 0.56 OD450
- OD450 [3]: 0.05 OD450
- OD450 [4]: 0.06 OD450

B7: PcOxP_DB01_A05 (scFv, V domains shown)
VH: B1 VH with G29F, F32Y, G53N, G55A, S57D, S105N, T107Y
VL: B6 VL with W34H
notes: scFv in periplasmic extract
- OD450 (BSA): 0.06 OD450
- OD450 [1]: 1.28 OD450
- OD450 [2]: 0.83 OD450
- OD450 [3]: 0.04 OD450
- OD450 [4]: 0.04 OD450

B8: PcOxP_DB01_B02 (scFv, V domains shown)
VH: B1 VH with F27G, G29F, G53N, G55A, E61A, T107Y
VL: B6 VL with W34H
notes: scFv in periplasmic extract
- OD450 (BSA): 0.09 OD450
- OD450 [1]: 1.41 OD450
- OD450 [2]: 0.68 OD450
- OD450 [3]: 0.05 OD450
- OD450 [4]: 0.06 OD450

B10: PcOxP_DB01_A04 (scFv, V domains shown)
VH: B1 VH with G29H, G53N, G55A, S57D, T107Y
VL: B6 VL with W34H
notes: scFv in periplasmic extract
- OD450 (BSA): 0.07 OD450
- OD450 [1]: 0.75 OD450
- OD450 [2]: 0.31 OD450
- OD450 [3]: 0.04 OD450
- OD450 [4]: 0.04 OD450

B12: PcOxP_DB01_A08 (scFv, V domains shown)
VH: B1 VH with G29Q, S51I, G53N, G55A, T107Y
VL: B6 VL with L29V, W34N, V36K
notes: scFv in periplasmic extract
- OD450 (BSA): 0.09 OD450
- OD450 [1]: 1.12 OD450
- OD450 [2]: 0.16 OD450
- OD450 [3]: 0.05 OD450
- OD450 [4]: 0.05 OD450

Source: patent US20250320312A1 (OXITOPE PHARMA B V, published 2025)
